{
  "source": "paper PMC7813835",
  "about": "“Structure of SRSF1 RRM1 bound to RNA reveals an unexpected bimodal mode of interaction and explains its involvement in SMN1 exon7 splicing”",
  "key": {"[1]": {"target": "T1, SRSF1 RRM1 (YS or WT not stated) (human, UniProt Q07955 1-97)", "T1 sequence (Q07955 1-97)": "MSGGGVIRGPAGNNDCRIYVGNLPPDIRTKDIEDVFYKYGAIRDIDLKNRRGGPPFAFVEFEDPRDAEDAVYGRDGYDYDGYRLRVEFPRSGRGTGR", "test": "NMR; NMR buffer: 50 mM L-Glu, 50 mM L-Arg, 0.05% beta-mercaptoethanol, 20 mM Na2HPO4 pH 7 (RRM1+2: plus 150 mM KCl, 1.5 mM MgCl2, 0.2 mM EDTA); NMR and ITC at 40 C", "conditions": "protein: recombinant; tags: N-terminal GB1-6xHis"}, "[2]": {"target": "T2, SRSF1 RRM1+2 YS (RRM12 YS) (human, UniProt Q07955 1-196, Y37S;Y72S)", "T2 sequence (Q07955 1-196 Y37S/Y72S)": "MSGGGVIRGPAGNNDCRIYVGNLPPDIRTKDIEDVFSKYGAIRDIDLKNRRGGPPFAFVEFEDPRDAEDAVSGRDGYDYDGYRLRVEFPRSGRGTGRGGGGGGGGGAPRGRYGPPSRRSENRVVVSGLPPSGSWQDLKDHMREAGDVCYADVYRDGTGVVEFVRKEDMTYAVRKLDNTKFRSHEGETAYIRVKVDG", "test": "ITC; NMR buffer: 50 mM L-Glu, 50 mM L-Arg, 0.05% beta-mercaptoethanol, 20 mM Na2HPO4 pH 7 (RRM1+2: plus 150 mM KCl, 1.5 mM MgCl2, 0.2 mM EDTA); NMR and ITC at 40 C", "conditions": "protein: recombinant; tags: GB1, His"}, "[3]": {"target": "T2, SRSF1 RRM1+2 YS (RRM12 YS)", "test": "NMR; saturation at 1:1; NMR buffer: 50 mM L-Glu, 50 mM L-Arg, 0.05% beta-mercaptoethanol, 20 mM Na2HPO4 pH 7 (RRM1+2: plus 150 mM KCl, 1.5 mM MgCl2, 0.2 mM EDTA); NMR and ITC at 40 C", "conditions": "protein: recombinant; tags: GB1, His"}, "[4]": {"target": "T1, SRSF1 RRM1 (YS or WT not stated)", "test": "NMR solution structure; 1:1 complex; NMR buffer: 50 mM L-Glu, 50 mM L-Arg, 0.05% beta-mercaptoethanol, 20 mM Na2HPO4 pH 7 (RRM1+2: plus 150 mM KCl, 1.5 mM MgCl2, 0.2 mM EDTA); NMR and ITC at 40 C", "conditions": "protein: recombinant; tags: N-terminal GB1-6xHis"}, "SRSF1 RRM1 WT": {"target": "SRSF1 RRM1 WT (human, UniProt Q07955 1-97)", "sequence (Q07955 1-97)": "as the sequence (Q07955 1-97) above", "test": "NMR; saturation at 1:1; NMR buffer: 50 mM L-Glu, 50 mM L-Arg, 0.05% beta-mercaptoethanol, 20 mM Na2HPO4 pH 7 (RRM1+2: plus 150 mM KCl, 1.5 mM MgCl2, 0.2 mM EDTA); NMR and ITC at 40 C", "conditions": "protein: recombinant; tags: N-terminal GB1-6xHis"}, "SRSF1 RRM1 YS": {"target": "SRSF1 RRM1 YS (human, UniProt Q07955 1-97, Y37S;Y72S)", "sequence (Q07955 1-97 Y37S/Y72S)": "as the sequence (Q07955 1-97) above, with Y37S, Y72S counted along it", "test": "ITC; NMR buffer: 50 mM L-Glu, 50 mM L-Arg, 0.05% beta-mercaptoethanol, 20 mM Na2HPO4 pH 7 (RRM1+2: plus 150 mM KCl, 1.5 mM MgCl2, 0.2 mM EDTA); NMR and ITC at 40 C", "conditions": "protein: recombinant; tags: N-terminal GB1-6xHis"}, "[5]": {"target": "T2, SRSF1 RRM1+2 YS (RRM12 YS)", "test": "ITC; 143 in the reviewer reply; NMR buffer: 50 mM L-Glu, 50 mM L-Arg, 0.05% beta-mercaptoethanol, 20 mM Na2HPO4 pH 7 (RRM1+2: plus 150 mM KCl, 1.5 mM MgCl2, 0.2 mM EDTA); NMR and ITC at 40 C", "conditions": "protein: recombinant; tags: GB1, His"}},
  "data": [
    {"binder": "UUUAGA (ssRNA)", "note": "[SMN2 exon7 ESE1 counterpart]", "values": [
      {"measurement": "binding result", "setting": "[1]", "value": "no binding"}
    ]},
    {"binder": "CCCCCC (ssRNA)", "note": "[polyC (NMR, length not stated)]", "values": [
      {"measurement": "binding result", "setting": "[1]", "value": "binds"}
    ]},
    {"binder": "UGGAUUUUUCAU (ssRNA)", "values": [
      {"measurement": "Kd", "setting": "[2]", "value": 0.055, "unit": "µM"}
    ]},
    {"binder": "UUCAGA (ssRNA)", "note": "[SMN1 exon7 ESE1]", "values": [
      {"measurement": "binding result", "setting": "[1]", "value": "binds"}
    ]},
    {"binder": "UCAUUGGAUUUUUCAU (ssRNA)", "values": [
      {"measurement": "binding result", "setting": "[3]", "value": "binds"}
    ]},
    {"binder": "UUUUUU (ssRNA)", "note": "[polyU (NMR, length not stated)]", "values": [
      {"measurement": "binding result", "setting": "[1]", "value": "no binding"}
    ]},
    {"binder": "AAAAAA (ssRNA)", "note": "[polyA (NMR, length not stated)]", "values": [
      {"measurement": "binding result", "setting": "[1]", "value": "no binding"}
    ]},
    {"binder": "AACAAA (ssRNA)", "note": "[AACAAA RNA]", "values": [
      {"measurement": "binding result", "setting": "[4]", "value": "binds"},
      {"measurement": "binding result", "setting": "SRSF1 RRM1 WT", "value": "binds"},
      {"measurement": "Kd", "setting": "SRSF1 RRM1 YS", "value": 21, "unit": "µM"}
    ]},
    {"binder": "CCCCCC (ssRNA)", "note": "[CCCCCC RNA (polyC)]", "values": [
      {"measurement": "Kd", "setting": "SRSF1 RRM1 YS", "value": 11, "unit": "µM"}
    ]},
    {"binder": "UUUUUGGAU (ssRNA)", "values": [
      {"measurement": "Kd", "setting": "[2]", "value": 0.164, "unit": "µM"}
    ]},
    {"binder": "AACGAA (ssRNA)", "note": "[AACGAA RNA]", "values": [
      {"measurement": "Kd", "setting": "SRSF1 RRM1 YS", "value": 25, "unit": "µM"},
      {"measurement": "binding result", "setting": "[1]", "value": "binds"}
    ]},
    {"binder": "UGGAUUUUUUUU (ssRNA)", "values": [
      {"measurement": "Kd", "setting": "[5]", "value": 0.145, "unit": "µM"}
    ]},
    {"binder": "UUUUUU (ssRNA)", "note": "[UUUUUU RNA (polyU)]", "values": [
      {"measurement": "binding result", "setting": "SRSF1 RRM1 YS", "value": "no binding"}
    ]},
    {"binder": "GGGGGG (ssRNA)", "note": "[polyG (NMR, length not stated)]", "values": [
      {"measurement": "binding result", "setting": "[1]", "value": "no binding"}
    ]}
  ]
}
